The values that follow come from publication PMC11800091 (iScience, 2025).

In assay [1] the target is human immunodeficiency virus type 1 JR-CSF Fc-gp120 protein (HIV-1 JR-CSF) (UniProt P20871). The experiment in a line: BLI. A general note: In BLI a coated tip is dipped into the sample, and binding shifts an interference pattern.
Assay [2] has as its target human immunodeficiency virus type 1 JR-CSF Fc-gp120 protein (HIV-1 JR-CSF, UniProt P20871). The experiment in a line: BLI.

For LPETG sortag-J3 nanobody (VHH), in assay [1], the Kd (usually a measure of binding affinity in units of concentration) turned out to be 1.92 nM.

B1: 3E3 nanobody (VHH)
VHH: EVQLVESGGGLVQPGGSLRLSCAASQFTLESYAIGWFRQAPGKDSEGVACISSSTYYADSVKGRFTISRDNAKNTVYLQMESLKPEDTAVYHCATSGAGSYCTLRAFGSWGQGTQVTVSS
Take B1: the affinity in assay [2], expressed as Kd, was 3.33 nM.

B2: LPETG sortag-3E3 nanobody (VHH)
VHH: EVQLVESGGGLVQPGGSLRLSCAASQFTLESYAIGWFRQAPGKDSEGVACISSSTYYADSVKGRFTISRDNAKNTVYLQMESLKPEDTAVYHCATSGAGSYCTLRAFGSWGQGTQVTVSS
Molecule B2 gave a Kd in assay [2] of 2.51 nM.
